Changes are numbered by the printed parent chain. Read-outs that look alike come from different tables or passages of the source.
How the values were obtained:
[1] = target: T1, full length human EpCAM on CHO cells (human, UniProt P16422 24-314); assay: flow cytometry on CHO cells stably expressing full length human EpCAM, PE detection
T1 construct: CHO cells stably expressing full length human EpCAM; also called hu-EpCAM-FL; human EpCAM-FL
T1 sequence: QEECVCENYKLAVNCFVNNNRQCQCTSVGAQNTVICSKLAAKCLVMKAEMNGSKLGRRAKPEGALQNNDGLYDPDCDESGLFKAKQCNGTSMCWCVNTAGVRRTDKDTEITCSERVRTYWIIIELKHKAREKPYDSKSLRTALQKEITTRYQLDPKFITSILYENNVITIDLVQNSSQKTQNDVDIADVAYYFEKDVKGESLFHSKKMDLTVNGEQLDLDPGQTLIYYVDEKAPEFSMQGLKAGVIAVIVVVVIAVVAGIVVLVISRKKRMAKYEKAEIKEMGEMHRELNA
Experimental: (§1) In general, cells were blocked in 1% BSA/PBS for 1 hr at 4 C and antibodies of interest were diluted into 1% BSA/PBS were added to blocked cells for incubation at 4° C. for 1 hr. after one wash with 1% BSA/PBS, staining procedures vary depending on the availability of antibodies or fluorescent antibody conjugate. In some case, direct fluorescence conjugates were used. In other cases, anti affinity tag antibodies (secondary antibody) were used to incubate with the cells followed by anti-species antibody conjugated with a particular fluorophore. In some other experiments, antibody (or other affinity reagent such as streptavidin) with fluorescence conjugate was used directly as secondary antibody (secondary reagent).

[2] = target: T2, recombinant cyno CD3epsilon/delta Fc(K-H) heterodimer (cynomolgus); assay: ELISA, immobilised antigen, biotinylated protein, streptavidin-HRP, ABTS, OD405
T2 construct: also called cynomolgus CD3epsilon/delta; recombinant cyno CD3epsilon/delta heterodimeric Fc protein; copies: 1 + 1

[3] = target: T3, human CD3epsilonAA1-27.Fc (human); assay: as above
T3 construct: also called recombinant human CD3epsilon N-terminal peptide (aa1-27.Fc fusion); CD3epsilon N-terminal amino acid 1-27 peptide Fc fusion

[4] = target: T3, human CD3epsilonAA1-27.Fc; assay: ELISA, immobilised antigen, His6-tagged Fab, anti-His6 antibody HRP conjugate, ABTS, OD405
Experimental: (§2) Humanized Fab proteins are his6 tagged at the C-terminus of Fd and the Fabs bound to the 96-well plate immobilized antigens were detected using anti his6 tag mouse antibody conjugated with HRP. ABTS was used as substrate and absorptions were measured at 405 nm.
(§3) MAXISORP® plates were used for ELISA binding assays. 50 μl of 1 μg/ml of antigens in 50 mM NaHCO₃were used to coat the plates at 4° C. overnight followed by incubation with 200 μl of 5% dry milk/TBS-0.05% TWEEN®-20 (i.e., polysorbate 20) (MTBS-T)/well. Antibodies were usually diluted in 5% MTBS-T and transferred to antigen coated plates and incubated for 1 hr with gentle shaking at room temperature. Bound antibodies were detected either by streptavidin-HRP (for detecting biotinylated antibodies) or anti-his tag-HRP conjugate (for his tagged antibodies). ABTS™ (i.e., 2,2′-azino-bis(3-ethylbenzothiazoline-6-sulphonic acid) solution in 50 mM citrate buffer was used for detection with OD405 measurement on using a microplate reader (Biotek).

[5] = target: T2, recombinant cyno CD3epsilon/delta …; assay: ELISA, immobilised antigen, His6-tagged Fab, anti-His6 antibody HRP conjugate, ABTS, OD405 [continued) E]
Experimental: as §2, §3

[6] = target: T4, recombinant human CD3epsilon/delta Fc(K-H) heterodimer (human); assay: ELISA, immobilised antigen, His6-tagged Fab, anti-His6 antibody HRP conjugate, ABTS, OD405
T4 construct: also called human CD3epsilon/delta knob and hole Fc heterodimer; copies: 1 + 1
T4 sequence (chain, as listed by the source mutant limits assumed, chain 1 of 2): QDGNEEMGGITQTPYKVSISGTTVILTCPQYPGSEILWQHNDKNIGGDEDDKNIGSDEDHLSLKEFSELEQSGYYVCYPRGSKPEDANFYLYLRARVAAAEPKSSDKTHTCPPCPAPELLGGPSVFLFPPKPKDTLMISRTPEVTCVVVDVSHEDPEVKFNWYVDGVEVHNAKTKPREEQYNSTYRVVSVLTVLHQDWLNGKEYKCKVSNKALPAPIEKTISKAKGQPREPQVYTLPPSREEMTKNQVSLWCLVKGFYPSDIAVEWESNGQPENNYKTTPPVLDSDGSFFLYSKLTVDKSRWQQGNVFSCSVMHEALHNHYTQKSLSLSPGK
T4 sequence (chain, as listed by the source mutant limits assumed, chain 2 of 2): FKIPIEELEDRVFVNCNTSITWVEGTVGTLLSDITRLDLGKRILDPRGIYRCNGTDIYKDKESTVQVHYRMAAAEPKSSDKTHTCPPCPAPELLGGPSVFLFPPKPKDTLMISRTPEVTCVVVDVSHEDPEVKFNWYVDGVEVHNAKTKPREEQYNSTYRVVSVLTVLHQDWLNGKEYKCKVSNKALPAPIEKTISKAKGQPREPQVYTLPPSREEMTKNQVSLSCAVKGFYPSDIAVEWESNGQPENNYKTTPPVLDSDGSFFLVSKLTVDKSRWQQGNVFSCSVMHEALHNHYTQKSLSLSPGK
Experimental: as §2, §3

[7] = target: T2, recombinant cyno CD3epsilon/delta …; assay: ELISA, immobilised antigen, His6-tagged Fab, anti-His6 antibody HRP conjugate, ABTS, OD405 [continued) F]
Experimental: as §2, §3

[8] = target: T3, human CD3epsilonAA1-27.Fc; assay: ELISA, immobilised antigen, His6-tagged Fab, anti-His6 antibody HRP conjugate, ABTS, OD405; remark: listed apart in the source
Experimental: as §2, §3

[9] = target: T4, recombinant human CD3epsilon/delta …; assay: as above; remark: listed apart in the source
Experimental: as §2, §3

[10] = target: T1, full length human EpCAM on CHO cells; assay: flow cytometry on CHO cells stably expressing full length human EpCAM, PE detection; remark: listed apart in the source
Experimental: as §1

[11] = target: T2, recombinant cyno CD3epsilon/delta …; assay: ELISA, immobilised antigen, biotinylated protein, streptavidin-HRP, ABTS, OD405; remark: listed apart in the source
[12] = target: T1, full length human EpCAM on CHO cells; assay: flow cytometry on CHO cells stably expressing full length human EpCAM, PE detection; remark: listed apart in the source
Experimental: as §1

[13] = target: T3, human CD3epsilonAA1-27.Fc; assay: ELISA, immobilised antigen, biotinylated protein, streptavidin-HRP, ABTS, OD405; remark: listed apart in the source

B1: OKT3 Fab (Fab, V domains shown)
VH: not shown
VL: QIVLTQSPAIMSASPGEKVTMTCSASSSVSYMNWYQQKSGTSPKRWIYDTSKLASGVPAHFRGSGSGTSYSLTISGMEAEDAATYYCQQWSSNPFTFGSGTKLEINR
notes: Anti-CD3 Fab; biotinylated in the assays
binding result [1]: no binding | binding result [2]: no binding (tested: about 80 nM (last point; axis to 100 nM)) | binding result [3]: no binding (tested: about 80 nM (last point; axis to 100 nM))

B2: hu-1F3.3 Fab (Fab, V domains shown)
VH: EVQLVESGGGLVQPGGSLRLSCAASGFTFSTYAMNWVRQAPGKGLEWVARIRSKYNNYATYYADSVKDRFTISRDDSKNTLYLQMNSLRAEDTAVYYCARHGNFGNSYVSWFAYWGQGTMVTVSS
VL: QAVVTQEPSLTVSPGGTVTLTCRSSTGAVTTSNYANWVQQKPGQAPRGLIGGTNKRAPGTPARFSGSLLGGKAALTLSGVQPEDEAEYYCALWYSNLWVFGGGTKLTVL
notes: His6 tag at the C-terminus of the Fd
binding result [4]: binds | binding result [5]: binds | binding result [6]: binds

B3: hu-1F3.8 Fab (Fab, V domains shown)
VH: B2 VH
VL: QAVVTQEPSLTVSPGGTVTLTCRSSTGAVTTSNYANWFQQKPGQAPRGLIGGTNKRAPGTPARFSGSLLGGKAALTLSGVQPEDEAEYYCALWYSNLWVFGGGTKLTVLG
notes: as for B2
binding result [7]: binds | binding result [8]: binds | binding result [9]: binds

B4: hu-1F3.10 Fab (Fab, V domains shown)
VH: B2 VH with S30N, A99V
VL: B3 VL
notes: as for B2
binding result [7]: binds | binding result [8]: binds | binding result [9]: binds

B5: hu-1F3.1 Fab (Fab, V domains shown)
VH: B2 VH with A49S
VL: B2 VL
notes: His6 tag at the C-terminus of the Fd; No entry is named hu-1F3-1LC; also called hu-1F3 Fab; humanized anti CD3 antibody Fab, hu-1F3
binding result [4]: binds | binding result [5]: binds | binding result [6]: binds | binding result [10]: no binding

B6: hu-1F3.2 Fab (Fab, V domains shown)
VH: B2 VH with S30N, A49S
VL: B2 VL
notes: as for B2
binding result [4]: binds | binding result [5]: binds | binding result [6]: binds

B7: hu-1F3.5 Fab (Fab, V domains shown)
VH: B2 VH with S30N, A99V
VL: B2 VL
notes: His6 tag at the C-terminus of the Fd; also called huIF3.5
EC50 (read off the curve) [4]: ~2 nM | EC50 (read off the curve) [5]: ~2 nM | EC50 (read off the curve) [6]: ~3 nM

B8: hu-1F3.4 Fab (Fab, V domains shown)
VH: B2 VH with A99V
VL: B2 VL
notes: as for B2
binding result [4]: binds

B9: hu-1F3.6 Fab (Fab, V domains shown)
VH: B2 VH with A49S
VL: B3 VL
notes: as for B2
binding result [7]: binds | binding result [8]: binds | binding result [9]: binds

B10: hu-1F3.7 Fab (Fab, V domains shown)
VH: B2 VH with S30N, A49S
VL: B3 VL
notes: as for B2
binding result [7]: binds | binding result [8]: binds | binding result [9]: binds

B11: hu-1F3.9 Fab (Fab, V domains shown)
VH: B2 VH with A99V
VL: B3 VL
notes: as for B2
binding result [7]: binds | binding result [8]: binds | binding result [9]: binds

B12: EpCAM1.2-(L)-hu-1F3.1 Fab (bispecific antibody)
heavy chain Fd (VH-CH1), unfused: EVQLVESGGGLVQPGGSLRLSCAASGFTFSTYAMNWVRQAPGKGLEWVSRIRSKYNNYATYYADSVKDRFTISRDDSKNTLYLQMNSLRAEDTAVYYCARHGNFGNSYVSWFAYWGQGTMVTVSSASTKGPSVFPLAPCSRSTSESTAALGCLVKDYFPEPVTVSWNSGALTSGVHTFPAVLQSSGLYSLSSVVTVPSSNFGTQTYTCNVDHKPSNTKVDKTVGGGGSHHHHHHH
light chain with anti-EpCAM scFv EpCAM1.2 at the N-terminus: EVQLVESGGGLVQPGGSLRLSCAASGFTFSNYWMSWVRQAPGKGLEWVANIKQDGSEKFYVDSVKGRFTISRDNAKNSLYLQMNSLRAEDMAVYYCARVGGAWELGYWGQGTLVTVSAGGGGSGGGGSGGGGSGAQSVLTQPPSVSGAPGQRVTISCTGSSSNIGSYYGVHWYQQLPGTAPKLLIYSDTNRPSGVPDRFSGSKSGTSASLAITGLQAEDEADYYCQSYDSSLSGRVFGGGTKLTVLGRAQAVVTQEPSLTVSPGGTVTLTCRSSTGAVTTSNYANWVQQKPGQAPRGLIGGTNKRAPGTPARFSGSLLGGKAALTLSGVQPEDEAEYYCALWYSNLWVFGGGTKLTVLGQPKAAPSVTLFPPSSEELQANKATLVCLISDFYPGAVTVAWKADSSPVKAGVETTTPSKQSNNKYAASSYLSLTPEQWKSHRSYSCQVTHEGSTVEKTVAPTECS
notes: member of group m20; also called EpCAM1.2-(L)-hu-1F3 Fab
binding result [11]: binds | binding result [12]: binds | binding result [13]: binds

B13: EpCAM1.2-(H+L)-hu-1F3.1 Fab (bispecific antibody)
heavy chain Fd with anti-EpCAM scFv EpCAM1.2 at the N-terminus: EVQLVESGGGLVQPGGSLRLSCAASGFTFSNYWMSWVRQAPGKGLEWVANIKQDGSEKFYVDSVKGRFTISRDNAKNSLYLQMNSLRAEDMAVYYCARVGGAWELGYWGQGTLVTVSAGGGGSGGGGSGGGGSGAQSVLTQPPSVSGAPGQRVTISCTGSSSNIGSYYGVHWYQQLPGTAPKLLIYSDTNRPSGVPDRFSGSKSGTSASLAITGLQAEDEADYYCQSYDSSLSGRVFGGGTKMTVLGRAEVQLVESGGGLVQPGGSLRLSCAASGFTFSTYAMNWVRQAPGKGLEWVSRIRSKYNNYATYYADSVKDRFTISRDDSKNTLYLQMNSLRAEDTAVYYCARHGNFGNSYVSWFAYWGQGTMVTVSSASTKGPSVFPLAPCSRSTSESTAALGCLVKDYFPEPVTVSWNSGALTSGVHTFPAVLQSSGLYSLSSVVTVPSSNFGTQTYTCNVDHKPSNTKVDKTVGGGGSHHHHHHH
light chain with anti-EpCAM scFv EpCAM1.2 at the N-terminus: B12 light chain with anti-EpCAM scFv EpCAM1.2 at the N-terminus
notes: member of group m20; also called EpCAM1.2-(H+L)-hu-1F3 Fab
binding result [11]: binds | binding result [12]: binds | binding result [13]: binds

B14: EpCAM1.2-(H)-hu-1F3.1 Fab (bispecific antibody)
heavy chain Fd with anti-EpCAM scFv EpCAM1.2 at the N-terminus: B13 heavy chain Fd with anti-EpCAM scFv EpCAM1.2 at the N-terminus
light chain, unfused: QAVVTQEPSLTVSPGGTVTLTCRSSTGAVTTSNYANWVQQKPGQAPRGLIGGTNKRAPGTPARFSGSLLGGKAALTLSGVQPEDEAEYYCALWYSNLWVFGGGTKLTVLGQPKAAPSVTLFPPSSEELQANKATLVCLISDFYPGAVTVAWKADSSPVKAGVETTTPSKQSNNKYAASSYLSLTPEQWKSHRSYSCQVTHEGSTVEKTVAPTECS
notes: member of group m20; also called EpCAM1.2-(H)-hu-1F3 Fab
binding result [11]: binds | binding result [12]: binds | binding result [13]: binds

Reference: patent publication US20210393776A1 (FABION PHARMACEUTICALS, published 2021)
